Target: the molecule itself
Experiment: crystal structure; F3ab (183-283), space group P2(1)2(1)2(1), three copies in the asymmetric unit; crystals from 100 mM Hepes, pH 7.0, 10% (w/v) PEG 6000

B1: IDOL F3ab subdomain (residues 183-283) (domain or fragment, human, UniProt Q8WY64 183-283, looked up)
chain: ENYGIEWHSVRDSEGQKLLIGVGPEGISICKDDFSPINRIAYPVVQMATQSGKNVYLTVTKESGNSIVLLFKMISTRAASGLYRAITETHAFYRCDTVTSA
notes: IDOL (MYLIP), human, F3ab subdomain, residues 183-283; E. coli codon-optimised gene in pET28(a); The construct holds an incomplete F3c' (279-283 of 279-300); also called FERM F3ab; third lobe of the FERM domain; not shown: His6, N-terminal, cleaved
binding result: binds

From paper PMC7521653, “Structural analysis of the LDL receptor–interacting FERM domain in the E3 ubiquitin ligase IDOL reveals an obscured substrate-binding site” (The Journal of Biological Chemistry, 2020)
